Assay results taken from paper PMC13457854 (Cell Discovery, 2026).

Columns and labels:
BTN3A1 = molecular target: T1, BTN3A1 (human, UniProt O00481 30-513); assay: AUC; sedimentation velocity, 40,000 rpm, 20 °C, 25 mM HEPES pH 7.4, 150 mM NaCl, 0.02% GDN, absorbance at 280 nm; no HMBPP (3A2 complex also with 40 μM HMBPP: less of the high-mass species); settings: both partners purified
T1 construct: BTN3A1, human, codon-optimised synthetic cDNA; Construct details are in the Supplementary Information; source: ExpiHEK293F, transfected; purified within the 3A2/3A3 complex (anti-Flag, Strep-Tactin XT, SEC)

[1] = molecular target: T2, BTN3A1/BTN3A2 heterodimer (human, UniProt O00481 30-513; P78410 30-334); assay: as above; settings: both partners purified
T2 construct: BTN3A1, human; synthetic signal peptide fused to the N-terminus; BTN3A2, human; copies: 1 + 1

T1 sequence (O00481 30-513): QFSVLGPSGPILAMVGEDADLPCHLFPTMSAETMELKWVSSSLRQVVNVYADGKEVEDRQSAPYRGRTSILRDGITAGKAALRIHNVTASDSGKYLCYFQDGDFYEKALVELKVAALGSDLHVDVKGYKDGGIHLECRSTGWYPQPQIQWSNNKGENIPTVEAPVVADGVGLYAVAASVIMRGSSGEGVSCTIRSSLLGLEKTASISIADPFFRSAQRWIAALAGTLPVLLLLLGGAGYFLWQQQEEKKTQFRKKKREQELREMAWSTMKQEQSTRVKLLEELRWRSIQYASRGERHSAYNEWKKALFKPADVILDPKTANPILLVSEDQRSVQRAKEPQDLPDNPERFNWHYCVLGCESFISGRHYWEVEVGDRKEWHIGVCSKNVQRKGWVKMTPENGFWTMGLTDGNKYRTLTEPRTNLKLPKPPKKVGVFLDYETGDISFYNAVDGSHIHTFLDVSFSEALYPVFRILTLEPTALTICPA

B1: BTN3A2 (natural protein)
chain: not shown
notes: BTN3A2, human, codon-optimised synthetic cDNA; Construct details are in the Supplementary Information; source: ExpiHEK293F, transfected; purified within the 3A2 complex (anti-Flag, Strep-Tactin XT, SEC)
binding result (BTN3A1): binds

B2: BTN2A1 (natural protein, human, UniProt Q7KYR7 29-527, looked up)
chain: QFIVVGPTDPILATVGENTTLRCHLSPEKNAEDMEVRWFRSQFSPAVFVYKGGRERTEEQMEEYRGRTTFVSKDISRGSVALVIHNITAQENGTYRCYFQEGRSYDEAILHLVVAGLGSKPLISMRGHEDGGIRLECISRGWYPKPLTVWRDPYGGVAPALKEVSMPDADGLFMVTTAVIIRDKSVRNMSCSINNTLLGQKKESVIFIPESFMPSVSPCAVALPIIVVILMIPIAVCIYWINKLQKEKKILSGEKEFERETREIALKELEKERVQKEEELQVKEKLQEELRWRRTFLHAVDVVLDPDTAHPDLFLSEDRRSVRRCPFRHLGESVPDNPERFDSQPCVLGRESFASGKHYWEVEVENVIEWTVGVCRDSVERKGEVLLIPQNGFWTLEMHKGQYRAVSSPDRILPLKESLCRVGVFLDYEAGDVSFYNMRDRSHIYTCPRSAFSVPVRPFFRLGCEDSPIFICPALTGANGVTVPEEGLTLHRVGTHQSL
notes: BTN2A1, human, codon-optimised synthetic cDNA; construct details are in the Supplementary Information; also called BTN2A1 homodimer; BTN2A1 dimer; source: ExpiHEK293F, transfected; purified within the 3A2/3A3 complex (anti-Flag, Strep-Tactin XT, SEC)
binding result [1]: binds
